In the test the test system is human HL60 cells. Briefly: SWATH-MS proteomics, differential protein representation, akirin2 KO vs WT HL60 cells. The following applies: akirin2 KO vs WT HL60 cells, sheet "Under-represented in KO". The format is cell-based. An outline of the steps:
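WT and akirin2 KO HL60 lysates (150 µg, n=3 biological replicates) were FASP trypsin-digested and desalted. A spectral library was built by IDA from 3 µg digests, then 5 µg per sample went to variable-window SWATH DIA over a 120-min 5–30% acetonitrile gradient. Identifications were accepted at 1% global FDR, with total-area-sum normalization.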

B1: sp¦P23381¦SYWC_HUMAN (protein, UniProt P23381 2-471, looked up)
Tryptophan--tRNA ligase, …: PNSEPASLLELFNSIATQGELVRSLKAGNASKDEIDSAVKMLVSLKMSYKAAAGEDYKADCPPGNPAPTSNHGPDATEAEEDFVDPWTVQTSSAKGIDYDKLIVRFGSSKIDKELINRIERATGQRPHHFLRRGIFFSHRDMNQVLDAYENKKPFYLYTGRGPSSEAMHVGHLIPFIFTKWLQDVFNVPLVIQMTDDEKYLWKDLTLDQAYSYAVENAKDIIACGFDINKTFIFSDLDYMGMSSGFYKNVVKIQKHVTFNQVKGIFGFTDSDCIGKISFPAIQAAPSFSNSFPQIFRDRTDIQCLIPCAIDQDPYFRMTRDVAPRIGYPKPALLHSTFFPALQGAQTKMSASDPNSSIFLTDTAKQIKTKVNKHAFSGGRDTIEEHRQFGGNCDVDVSFMYLTFFLEDDDKLEQIRKDYTSGAMLTGELKKALIEVLQPLIAEHQARRKEVTDEIVKEFMTPRKLSFDFQ
With B1, the “Fold Change” value turned out to be 0.6341 and the “Log (Fold Change)” value is reported as -0.1979.

B2: sp¦Q8TCJ2¦STT3B_HUMAN (protein, UniProt Q8TCJ2 2-826, looked up)
Dolichyl-diphosphooligosacchar …: AEPSAPESKHKSSLNSSPWSGLMALGNSRHGHHGPGAQCAHKAAGGAAPPKPAPAGLSGGLSQPAGWQSLLSFTILFLAWLAGFSSRLFAVIRFESIIHEFDPWFNYRSTHHLASHGFYEFLNWFDERAWYPLGRIVGGTVYPGLMITAGLIHWILNTLNITVHIRDVCVFLAPTFSGLTSISTFLLTRELWNQGAGLLAACFIAIVPGYISRSVAGSFDNEGIAIFALQFTYYLWVKSVKTGSVFWTMCCCLSYFYMVSAWGGYVFIINLIPLHVFVLLLMQRYSKRVYIAYSTFYIVGLILSMQIPFVGFQPIRTSEHMAAAGVFALLQAYAFLQYLRDRLTKQEFQTLFFLGVSLAAGAVFLSVIYLTYTGYIAPWSGRFYSLWDTGYAKIHIPIIASVSEHQPTTWVSFFFDLHILVCTFPAGLWFCIKNINDERVFVALYAISAVYFAGVMVRLMLTLTPVVCMLSAIAFSNVFEHYLGDDMKRENPPVEDSSDEDDKRNQGNLYDKAGKVRKHATEQEKTEEGLGPNIKSIVTMLMLMLLMMFAVHCTWVTSNAYSSPSVVLASYNHDGTRNILDDFREAYFWLRQNTDEHARVMSWWDYGYQIAGMANRTTLVDNNTWNNSHIALVGKAMSSNETAAYKIMRTLDVDYVLVIFGGVIGYSGDDINKFLWMVRIAEGEHPKDIRESDYFTPQGEFRVDKAGSPTLLNCLMYKMSYYRFGEMQLDFRTPPGFDRTRNAEIGNKDIKFKHLEEAFTSEHWLVRIYKVKAPDNRETLDHKPRVTNIFPKQKYLSKKTTKRKRGYIKNKLVFKKGKKISKKTV
For the molecule B2, under “KO vs WT”, the “Fold Change” value amounted to 0.6204 and the “Log (Fold Change)” value is recorded as -0.2073.

B3: sp¦P30048¦PRDX3_HUMAN (protein, UniProt P30048 62-256, looked up)
Thioredoxin-dependent …: APAVTQHAPYFKGTAVVNGEFKDLSLDDFKGKYLVLFFYPLDFTFVCPTEIVAFSDKANEFHDVNCEVVAVSVDSHFSHLAWINTPRKNGGLGHMNIALLSDLTKQISRDYGVLLEGSGLALRGLFIIDPNGVIKHLSVNDLPVGRSVEETLRLVKAFQYVETHGEVCPANWTPDSPTIKPSPAASKEYFQKVNQ
In the case of B3, the “Fold Change” value amounted to 0.6339 and the “Log (Fold Change)” value is recorded as -0.198.

B4: sp¦Q9NRP0¦OSTC_HUMAN (protein, UniProt Q9NRP0 1-149, looked up)
Oligosaccharyltransferase …: METLYRVPFLVLECPNLKLKKPPWLHMPSAMTVYALVVVSYFLITGGIIYDVIVEPPSVGSMTDEHGHQRPVAFLAYRVNGQYIMEGLASSFLFTMGGLGFIILDRSNAPNIPKLNRFLLLFIGFVCVLLSFFMARVFMRMKLPGYLMG
Turning to B4, for the setting “KO vs WT”, the “Fold Change” value was 0.6247 and the “Log (Fold Change)” value is listed as -0.2043.

B5: sp¦Q9H845¦ACAD9_HUMAN (protein, UniProt Q9H845 38-621, looked up)
Complex I assembly factor …: AFAKELFLGKIKKKEVFPFPEVSQDELNEINQFLGPVEKFFTEEVDSRKIDQEGKIPDETLEKLKSLGLFGLQVPEEYGGLGFSNTMYSRLGEIISMDGSITVTLAAHQAIGLKGIILAGTEEQKAKYLPKLASGEHIAAFCLTEPASGSDAASIRSRATLSEDKKHYILNGSKVWITNGGLANIFTVFAKTEVVDSDGSVKDKITAFIVERDFGGVTNGKPEDKLGIRGSNTCEVHFENTKIPVENILGEVGDGFKVAMNILNSGRFSMGSVVAGLLKRLIEMTAEYACTRKQFNKRLSEFGLIQEKFALMAQKAYVMESMTYLTAGMLDQPGFPDCSIEAAMVKVFSSEAAWQCVSEALQILGGLGYTRDYPYERILRDTRILLIFEGTNEILRMYIALTGLQHAGRILTTRIHELKQAKVSTVMDTVGRRLRDSLGRTVDLGLTGNHGVVHPSLADSANKFEENTYCFGRTVETLLLRFGKTIMEEQLVLKRVANILINLYGMTAVLSRASRSIRIGLRNHDHEVLLANTFCVEAYLQNLFSLSQLDKYAPENLDEQIKKVSQQILEKRAYICAHPLDRTC
Take B5: the “Fold Change” value is recorded as 0.6441 and the “Log (Fold Change)” value is -0.191.

B6: sp¦Q15907¦RB11B_HUMAN (protein, UniProt Q15907 2-215, looked up)
Ras-related protein Rab-11B: GTRDDEYDYLFKVVLIGDSGVGKSNLLSRFTRNEFNLESKSTIGVEFATRSIQVDGKTIKAQIWDTAGQERYRAITSAYYRGAVGALLVYDIAKHLTYENVERWLKELRDHADSNIVIMLVGNKSDLRHLRAVPTDEARAFAEKNNLSFIETSALDSTNVEEAFKNILTEIYRIVSQKQIADRAAHDESPGNNVVDISVPPTTDGQKPNKLQCC
Consider B6, for which the “Fold Change” value was 0.6332 and the “Log (Fold Change)” value is listed as -0.1984.

B7: sp¦P46977¦STT3A_HUMAN (protein, UniProt P46977 1-705, looked up)
Dolichyl-diphosphooligosacchar …: MTKFGFLRLSYEKQDTLLKLLILSMAAVLSFSTRLFAVLRFESVIHEFDPYFNYRTTRFLAEEGFYKFHNWFDDRAWYPLGRIIGGTIYPGLMITSAAIYHVLHFFHITIDIRNVCVFLAPLFSSFTTIVTYHLTKELKDAGAGLLAAAMIAVVPGYISRSVAGSYDNEGIAIFCMLLTYYMWIKAVKTGSICWAAKCALAYFYMVSSWGGYVFLINLIPLHVLVLMLTGRFSHRIYVAYCTVYCLGTILSMQISFVGFQPVLSSEHMAAFGVFGLCQIHAFVDYLRSKLNPQQFEVLFRSVISLVGFVLLTVGALLMLTGKISPWTGRFYSLLDPSYAKNNIPIIASVSEHQPTTWSSYYFDLQLLVFMFPVGLYYCFSNLSDARIFIIMYGVTSMYFSAVMVRLMLVLAPVMCILSGIGVSQVLSTYMKNLDISRPDKKSKKQQDSTYPIKNEVASGMILVMAFFLITYTFHSTWVTSEAYSSPSIVLSARGGDGSRIIFDDFREAYYWLRHNTPEDAKVMSWWDYGYQITAMANRTILVDNNTWNNTHISRVGQAMASTEEKAYEIMRELDVSYVLVIFGGLTGYSSDDINKFLWMVRIGGSTDTGKHIKENDYYTPTGEFRVDREGSPVLLNCLMYKMCYYRFGQVYTEAKRPPGFDRVRNAEIGNKDFELDVLEEAYTTEHWLVRIYKVKDLDNRGLSRT
On to B7, for which the “Fold Change” value is recorded as 0.6295 and the “Log (Fold Change)” value was -0.201.

B8: sp¦P61006¦RAB8A_HUMAN (protein, UniProt P61006 1-204, looked up)
Ras-related protein Rab-8A: MAKTYDYLFKLLLIGDSGVGKTCVLFRFSEDAFNSTFISTIGIDFKIRTIELDGKRIKLQIWDTAGQERFRTITTAYYRGAMGIMLVYDITNEKSFDNIRNWIRNIEEHASADVEKMILGNKCDVNDKRQVSKERGEKLALDYGIKFMETSAKANINVENAFFTLARDIKAKMDKKLEGNSPQGSNQGVKITPDQQKRSSFFRC
Consider B8, for which, for the setting “KO vs WT”, the “Fold Change” value came out at 0.62 and the “Log (Fold Change)” value is given as -0.2076.

B9: sp¦P20645¦MPRD_HUMAN (protein, UniProt P20645 27-277, looked up)
Cation-dependent …: TEEKTCDLVGEKGKESEKELALVKRLKPLFNKSFESTVGQGSDTYIYIFRVCREAGNHTSGAGLVQINKSNGKETVVGRLNETHIFNGSNWIMLIYKGGDEYDNHCGKEQRRAVVMISCNRHTLADNFNPVSEERGKVQDCFYLFEMDSSLACSPEISHLSVGSILLVTFASLVAVYVVGGFLYQRLVVGAKGMEQFPHLAFWQDLGNLVADGCDFVCRSKPRNVPAAYRGVGDDQLGEESEERDDHLLPM
In the case of B9, the “Fold Change” value is listed as 0.6378 and the “Log (Fold Change)” value was -0.1953.

B10: sp¦P57740¦NU107_HUMAN (protein, UniProt P57740 1-925, looked up)
Nuclear pore complex protein …: MDRSGFGEISSPVIREAEVTRTARKQSAQKRVLLQASQDENFGNTTPRNQVIPRTPSSFRQPFTPTSRSLLRQPDISCILGTGGKSPRLTQSSGFFGNLSMVTNLDDSNWAAAFSSQRSGLFTNTEPHSITEDVTISAVMLREDDPGEAASMSMFSDFLQSFLKHSSSTVFDLVEEYENICGSQVNILSKIVSRATPGLQKFSKTASMLWLLQQEMVTWRLLASLYRDRIQSALEEESVFAVTAVNASEKTVVEALFQRDSLVRQSQLVVDWLESIAKDEIGEFSDNIEFYAKSVYWENTLHTLKQRQLTSYVGSVRPLVTELDPDAPIRQKMPLDDLDREDEVRLLKYLFTLIRAGMTEEAQRLCKRCGQAWRAATLEGWKLYHDPNVNGGTELEPVEGNPYRRIWKISCWRMAEDELFNRYERAIYAALSGNLKQLLPVCDTWEDTVWAYFRVMVDSLVEQEIQTSVATLDETEELPREYLGANWTLEKVFEELQATDKKRVLEENQEHYHIVQKFLILGDIDGLMDEFSKWLSKSRNNLPGHLLRFMTHLILFFRTLGLQTKEEVSIEVLKTYIQLLIREKHTNLIAFYTCHLPQDLAVAQYALFLESVTEFEQRHHCLELAKEADLDVATITKTVVENIRKKDNGEFSHHDLAPALDTGTTEEDRLKIDVIDWLVFDPAQRAEALKQGNAIMRKFLASKKHEAAKEVFVKIPQDSIAEIYNQCEEQGMESPLPAEDDNAIREHLCIRAYLEAHETFNEWFKHMNSVPQKPALIPQPTFTEKVAHEHKEKKYEMDFGIWKGHLDALTADVKEKMYNVLLFVDGGWMVDVREDAKEDHERTHQMVLLRKLCLPMLCFLLHTILHSTGQYQECLQLADMVSSERHKLYLVFSKEELRKLLQKLRESSLMLLDQGLDPLGYEIQL
As to B10, the “Fold Change” value stood at 0.6316 and the “Log (Fold Change)” value was -0.1995.

The record behind these values is PMC8298264, “Function of cofactor Akirin2 in the regulation of gene expression in model human neutrophil-like HL60 cells” (Bioscience Reports, 2021).
